Molecular target: T1, BMC12 (uncultured bacterium (metagenome))
T1 chain: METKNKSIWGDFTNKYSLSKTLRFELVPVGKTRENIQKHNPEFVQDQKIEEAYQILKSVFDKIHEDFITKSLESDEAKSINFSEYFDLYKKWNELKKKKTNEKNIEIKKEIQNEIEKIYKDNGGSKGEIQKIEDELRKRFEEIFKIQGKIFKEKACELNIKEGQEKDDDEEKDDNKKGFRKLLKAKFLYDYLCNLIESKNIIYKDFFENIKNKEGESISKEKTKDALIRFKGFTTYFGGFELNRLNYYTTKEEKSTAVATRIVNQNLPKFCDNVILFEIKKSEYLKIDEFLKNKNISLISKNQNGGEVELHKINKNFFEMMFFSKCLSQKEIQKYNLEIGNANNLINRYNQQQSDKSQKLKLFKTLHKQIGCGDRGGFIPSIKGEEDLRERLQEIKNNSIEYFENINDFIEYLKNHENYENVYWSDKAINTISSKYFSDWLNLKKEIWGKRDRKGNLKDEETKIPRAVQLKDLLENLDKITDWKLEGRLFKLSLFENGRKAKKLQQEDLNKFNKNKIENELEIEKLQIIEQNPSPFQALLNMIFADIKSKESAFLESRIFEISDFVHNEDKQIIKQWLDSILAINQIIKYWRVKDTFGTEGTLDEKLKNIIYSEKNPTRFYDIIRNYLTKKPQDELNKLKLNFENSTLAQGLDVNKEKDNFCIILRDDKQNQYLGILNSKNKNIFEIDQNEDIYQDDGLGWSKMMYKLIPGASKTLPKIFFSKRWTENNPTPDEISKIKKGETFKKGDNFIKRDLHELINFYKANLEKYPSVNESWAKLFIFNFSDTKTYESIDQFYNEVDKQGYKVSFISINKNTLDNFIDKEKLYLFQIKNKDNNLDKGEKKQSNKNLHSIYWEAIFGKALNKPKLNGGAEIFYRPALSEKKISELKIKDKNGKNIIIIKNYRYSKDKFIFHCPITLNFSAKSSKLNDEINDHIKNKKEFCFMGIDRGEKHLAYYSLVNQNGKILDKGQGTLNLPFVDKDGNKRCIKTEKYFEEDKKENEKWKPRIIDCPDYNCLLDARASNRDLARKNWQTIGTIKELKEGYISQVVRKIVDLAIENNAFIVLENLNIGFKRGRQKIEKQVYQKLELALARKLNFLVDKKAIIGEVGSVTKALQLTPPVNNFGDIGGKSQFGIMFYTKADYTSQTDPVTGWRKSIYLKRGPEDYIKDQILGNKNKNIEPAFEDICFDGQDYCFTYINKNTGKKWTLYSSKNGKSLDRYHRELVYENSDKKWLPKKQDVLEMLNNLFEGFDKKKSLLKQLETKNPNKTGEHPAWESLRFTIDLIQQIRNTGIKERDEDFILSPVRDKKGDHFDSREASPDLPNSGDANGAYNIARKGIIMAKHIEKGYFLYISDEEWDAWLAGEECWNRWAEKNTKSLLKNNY
Assay: cell_activity; PAM not stated; E. coli depletion, 30 C
How it was run: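 E. coli carrying arabinose-induced (0.2%) BMC nuclease, grown at 30° C., made electrocompetent and electroporated with 50-100 ng plasmid carrying gRNA against malQ. Transformants plated on selective M9-glucose agar with kanamycin/ampicillin (± nourseothricin), and growth scored after 48 h at 30° C.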

B1: malQ gRNA (BMC stem-loop + 24 nt spacer) ; malQ protospacer (ssRNA ; dsDNA)
RNA: GAUUUCUACUAUUGUAGAUGUGGCGGUACGUUGAUGCAUCGCG
DNA 1: GTGGCGGTACGTTGATGCATCGCG
DNA 2: CGCGATGCATCAACGTACCGCCAC
activity: > 99.9 % colony reduction
